Test results: US20040023883A1 (published 2004)

Experiments:
[1] = biological target: T1, IGF-I F49A on phage (G1S-A70V template) (human; bacteriophage M13); test: competitive phage ELISA; ratio against IGFBP-3; details: remark: other sources report otherwise
T1 chain: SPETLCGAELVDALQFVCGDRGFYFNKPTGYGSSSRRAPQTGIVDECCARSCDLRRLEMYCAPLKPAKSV

[2] = biological target: T1, IGF-I F49A on phage (G1S-A70V template) …; test: competitive phage ELISA; details: remark: other sources report otherwise
[3] = biological target: IGF-I S1A on phage (G1S-A70V template) (human; bacteriophage M13); test: competitive phage ELISA
From the text: (§1) Phage particles were harvested and resuspended in PBS buffer as described in Lowman, H. B., “Phage Display of Peptide Libraries on Protein Scaffolds,” in Cabilly, S. (ed.), Combinatorial Peptide Library Protocols (Humana Press Inc.: Totowa, N.J., 1998), pp. 249-264. Then phage concentrations were normalized to yield a maximal ELISA signal of 0.2-0.4 for each mutant (Lowman, in Cabilly, S. (ed.), supra). […] After blocking, the plates containing immobilized target were washed with 0.05% TWEEN™/PBS buffer and subsequently incubated with 80 μl/well of the premixed phage-competitor solutions for 1 hour at room temperature. After washing, bound phage was detected with 80 μl/well of a solution containing a primary rabbit anti-phage polyclonal antibody and a secondary goat anti-rabbit monoclonal antibody-horseradish peroxidase conjugate in 0.5% TWEEN 20™/PBS. o-Phenylenediamine (Sigma) and tetramethylbenzidine (Kirkegaard and Perry) were used as chromogenic substrates, resulting in product detection at 492 and 450 nm, respectively. IC₅₀ values were determined by fitting the binding data to a generic saturation curve (Lowman, in Cabilly, S. (ed.), supra).
(§2) At least two different clones of every mutant were tested.

[4] = biological target: T2, IGF-I P2A on phage (G1S-A70V template) (human; bacteriophage M13); test: competitive phage ELISA
T2 construct: not shown: M13 gene III fragment (residues 249-406), the display carrier, and its junction to IGF-I
From the text: as §1, §2

relative specificity (relative IC50 IGFBP-1/relative IC50 IGFBP-3) [1]: > 28
relative IC50 (IC50 mut/IC50 G1S-A70V) [2]: > 100
IC50 [3]: 5.2 nM
IC50 [4]: 11 nM
B1: human IGFBP-1 (other, UniProt P08833 26-259, looked up)
chain: APWQCAPCSAEKLALCPPVSASCSEVTRSAGCGCCPMCALPLGAACGVATARCARGLSCRALPGEQQPLHALTRGQGACVQESDASAPHAAEAGSPESPESTEITEEELLDNFHLMAPSEEDHSILWDAISTYDGSKALHVTNIKKWKEPCRIELYRVVESLAKAQETSGEEISKFYLPNCNKNGFYHSRQCETSMDGEAGLCWCVYPWNGKRIPGSPEIRGDPNCQIYFNVQN
notes: Recombinant secreted protein
